± gives the standard deviation of the averaged measurements.
test system: ATP; test: switch fluorescence ratio, 500 uM ATP over buffer (Cy3 cluster intensity, sum of 5 cycles each) (fold (ratio)); higher = stronger signal-on switching upon ATP binding; sequences stand for … in TCGTCGGCAGCGTCAGATGTGTATAAGAGACAGTTTTTTTTTTTTTTTTTTTTTTTTT…TC; details: aptamer strand: ATP DNA aptamer (quencher-CACCTGGGGGAGTATTGCGGAGGAAGG + anchor), 100 nM annealed; ATP concentration: 500 uM
Outline: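 Cy3-labelled switching-strand clusters on a modified Illumina MiSeq flow-cell were annealed to 100 nM quencher-labelled ATP aptamer, imaged in selection buffer, then imaged after 15 min with 500 uM ATP at 22 °C. Five buffer/ATP cycles ran, with NaOH stripping and re-annealing between them. The fluorescence ratio is summed target-cycle over summed buffer-cycle Cy3 intensity per cluster, averaged per switch-domain sequence. Clusters outside 100-1000 RFU were excluded.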
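Further: ATP exposure 15 min at 22 °C before imaging.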

Sequence | switch fluorescence ratio
GGGACGGGTT | 0.974 ± 0.029
GGGACGTGTT | 1.02 ± 0.028
GGGACTTATG | 1 ± 0.013
GGGACTTCAA | 1 ± 0.039
GGGACTTGGG | 0.998 ± 0.037
GGGAGAATGC | 0.939 ± 0.097
GGGAGACAGA | 0.957 ± 0.074
GGGAGACTCG | 0.96678 ± 0.00026
GGGAGCAAAG | 1.04 ± 0.026
GGGAGCCCCA | 1.04 ± 0.039
GGGAGCGCCG | 1.03 ± 0.039
GGGAGCTGCG | 1 ± 0.018
GGGAGCTGTT | 1.06 ± 0.11
GGGAGCTTTT | 0.999 ± 0.023
GGGAGGAGGG | 0.976 ± 0.035
GGGAGGCCGG | 1 ± 0.036
GGGAGGCGAG | 1.016 ± 0.0011
GGGAGGGGGA | 1.01 ± 0.035
GGGAGGGGGT | 1 ± 0.035
GGGAGGGGTA | 1 ± 0.029
GGGAGGGTTA | 0.996 ± 0.055
GGGAGGGTTC | 1.01 ± 0.083
GGGAGTAGCA | 1.02 ± 0.026
GGGAGTATGG | 0.977 ± 0.027
GGGAGTGGTG | 1.12 ± 0.17

Sequence | switch fluorescence ratio
GGGAGTGTCA | 0.981 ± 0.0045
GGGAGTGTGT | 0.986 ± 0.039
GGGAGTGTTT | 1 ± 0.026
GGGAGTTAGA | 0.9885 ± 0.0063
GGGAGTTAGG | 0.9609 ± 0.0049
GGGAGTTTAG | 0.994 ± 0.016
GGGATACCCT | 0.9798 ± 0.00069
GGGATAGGGA | 1.01 ± 0.045
GGGATAGTGG | 0.979 ± 0.03
GGGATATCTG | 0.98847 ± 0.00072
GGGATATGTA | 1.01 ± 0.041
GGGATCCCTT | 1.03 ± 0.05
GGGATCCTTG | 1 ± 0.022
GGGATGACCT | 1.1 ± 0.044
GGGATGCGTG | 0.991 ± 0.043
GGGATGGATC | 0.9929 ± 0.0011
GGGATGGGCA | 1.01 ± 0.055
GGGATTAAAG | 1.02 ± 0.017
GGGATTGATC | 1.02 ± 0.021
GGGATTGGAT | 0.967 ± 0.037
GGGATTGGGA | 0.99 ± 0.045
GGGATTTGGC | 0.995 ± 0.036
GGGCAAAATG | 0.981 ± 0.036
GGGCAAACAG | 0.959 ± 0.029
GGGCAAACGA | 1.12 ± 0.025

Sequence | switch fluorescence ratio
GGGCAAATGA | 0.9764 ± 0.0041
GGGCAAGACA | 1.23 ± 0.018
GGGCAAGCTG | 1.04 ± 0.1
GGGCAAGGGT | 0.977 ± 0.029
GGGCAATCTT | 1.119 ± 0.0083
GGGCAATTGG | 0.992 ± 0.0056
GGGCACTCTT | 1 ± 0.011
GGGCACTTGT | 1.01 ± 0.04
GGGCAGGCGA | 1.011 ± 0.0077
GGGCAGGTGG | 1.08 ± 0.065
GGGCATAGG | 1.008 ± 0.0014
GGGCATGGAA | 0.969 ± 0.018
GGGCCAAGTA | 0.983 ± 0.033
GGGCCACTCG | 0.9716 ± 0.0096
GGGCCCAGCT | 1.02 ± 0.031
GGGCCGAATG | 1.009 ± 0.0025
GGGCCTGAGG | 0.969 ± 0.028
GGGCCTTTTC | 1 ± 0.056
GGGCGACACG | 1 ± 0.06
GGGCGACTGT | 0.978 ± 0.023
GGGCGATGTT | 0.984 ± 0.04
GGGCGCAGCG | 0.978 ± 0.031
GGGCGCAGGG | 1.01 ± 0.01
GGGCGCCTAA | 1 ± 0.046
GGGCGCCTGC | 0.9942 ± 0.0065

Sequence | switch fluorescence ratio
GGGCGGGGGT | 1.02 ± 0.019
GGGCGGTTTG | 0.971 ± 0.046
GGGCGTACGG | 1.06 ± 0.045
GGGCGTTTCG | 1.005 ± 0.0089
GGGCTAAGGG | 0.985 ± 0.056
GGGCTAGGCA | 1.02 ± 0.014
GGGCTAGGGG | 0.994 ± 0.029
GGGCTAGGTT | 0.986 ± 0.031
GGGCTAGTAC | 1.13 ± 0.017
GGGCTATCAT | 0.965 ± 0.012
GGGCTATTAT | 1.02 ± 0.081
GGGCTCAGGC | 0.988 ± 0.0094
GGGCTGCCGA | 1.03 ± 0.021
GGGCTGTCTG | 0.9631 ± 0.0076
GGGCTTCAGA | 0.987 ± 0.023
GGGCTTCTTG | 0.962 ± 0.021
GGGCTTCTTT | 0.996 ± 0.034
GGGCTTTATA | 1.02 ± 0.014
GGGGAAAAAA | 1.06 ± 0.14
GGGGAAAAAG | 1.01 ± 0.028
GGGGAAAAGA | 1 ± 0.025
GGGGAAAGAA | 1.02 ± 0.064
GGGGAACACT | 1.01 ± 0.022
GGGGAAGACT | 0.989 ± 0.016
GGGGAAGATT | 0.986 ± 0.03

Sequence | switch fluorescence ratio
GGGGAAGGT | 1.04 ± 0.019
GGGGAAGGTT | 0.991 ± 0.037
GGGGAATCAG | 1.03 ± 0.017
GGGGAATGCT | 1.01 ± 0.02
GGGGAATGTA | 0.971 ± 0.022
GGGGAATTAA | 0.99 ± 0.018
GGGGAATTCA | 1.04 ± 0.046
GGGGAATTCG | 1.02 ± 0.043
GGGGAATTTT | 1.01 ± 0.037
GGGGACAGGG | 1.01 ± 0.051
GGGGACAGGT | 1.03 ± 0.0057
GGGGACCGGG | 1.07 ± 0.094
GGGGACCTAT | 1.02 ± 0.018
GGGGACTACT | 1 ± 0.025
GGGGACTGAT | 0.995 ± 0.022
GGGGACTGGT | 1 ± 0.043
GGGGACTTGC | 0.9913 ± 0.0045
GGGGAGCAGC | 1.11 ± 0.22
GGGGAGCATT | 1.04 ± 0.013
GGGGAGGGAT | 0.996 ± 0.017
GGGGAGGGCT | 0.964 ± 0.033
GGGGAGGGGC | 1.01 ± 0.065
GGGGAGGTCT | 1.01 ± 0.03
GGGGAGGTTC | 1 ± 0.031
GGGGAGTGTT | 0.998 ± 0.039

Sequence | switch fluorescence ratio
GGGGAGTTAG | 1.01 ± 0.013
GGGGATAAGT | 1.04 ± 0.054
GGGGATACAG | 0.995 ± 0.012
GGGGATATAT | 1 ± 0.035
GGGGATATTT | 1 ± 0.014
GGGGATCGCG | 0.986 ± 0.033
GGGGATGAGA | 0.986 ± 0.01
GGGGATGGTA | 0.978 ± 0.025
GGGGATGTAC | 1.07 ± 0.077
GGGGATGTAG | 0.979 ± 0.026
GGGGATGTTA | 1.01 ± 0.026
GGGGATGTTT | 0.958 ± 0.039
GGGGATTGAG | 0.973 ± 0.042
GGGGATTGTT | 1 ± 0.033
GGGGATTTCA | 0.989 ± 0.024
GGGGATTTGT | 0.994 ± 0.034
GGGGCAAAGA | 1.02 ± 0.027
GGGGCAAGCG | 1.04 ± 0.028
GGGGCAGAAA | 1.26 ± 0.45
GGGGCAGGCG | 1.07 ± 0.35
GGGGCATAGT | 0.991 ± 0.02
GGGGCATGGC | 1.02 ± 0.028
GGGGCATTAT | 1.06 ± 0.074
GGGGCCAATT | 1.01 ± 0.032
GGGGCCGGGA | 1.12 ± 0.19

Sequence | switch fluorescence ratio
GGGGCCGGTC | 1 ± 0.016
GGGGCGAGTC | 1.01 ± 0.1
GGGGCGGACG | 0.995 ± 0.047
GGGGCGGGCA | 1.03 ± 0.043
GGGGCGGGTG | 0.993 ± 0.039
GGGGCGGGTT | 1.02 ± 0.04
GGGGCGGTGC | 1.03 ± 0.023
GGGGCGGTGT | 1.32 ± 0.54
GGGGCGTGTA | 0.977 ± 0.029
GGGGCTAGAG | 1.4 ± 0.77
GGGGCTAGGG | 1 ± 0.032
GGGGCTCTAA | 1.01 ± 0.038
GGGGCTGAGT | 0.954 ± 0.039
GGGGCTGCGG | 0.973 ± 0.052
GGGGCTGGGG | 1.01 ± 0.034
GGGGCTGGGT | 1.02 ± 0.031
GGGGCTGTCT | 1 ± 0.071
GGGGCTTGTG | 1.01 ± 0.028
GGGGCTTTTC | 1.01 ± 0.027
GGGGGAACGT | 1.05 ± 0.037
GGGGGAAGTA | 1.041 ± 0.0027
GGGGGAATTA | 1.01 ± 0.029
GGGGGACAGG | 1.05 ± 0.072
GGGGGACGGT | 1.02 ± 0.017
GGGGGAGAAA | 1.02 ± 0.033

Sequence | switch fluorescence ratio
GGGGGAGAAC | 1.026 ± 0.0019
GGGGGAGAGG | 0.99 ± 0.029
GGGGGAGCAG | 0.9812 ± 0.0084
GGGGGAGCGT | 1 ± 0.03
GGGGGAGGGT | 0.997 ± 0.036
GGGGGAGTAC | 1.025 ± 0.0084
GGGGGAGTAG | 0.983 ± 0.016
GGGGGATACT | 1.04 ± 0.037
GGGGGATATT | 1.01 ± 0.037
GGGGGATCGC | 1.01 ± 0.025
GGGGGATCGT | 1.02 ± 0.035
GGGGGATGAA | 0.991 ± 0.025
GGGGGATT | 0.996 ± 0.02
GGGGGATTAG | 0.992 ± 0.022
GGGGGATTAT | 0.992 ± 0.044
GGGGGATTCT | 1.02 ± 0.011
GGGGGATTGG | 0.999 ± 0.032
GGGGGCAGGT | 1.03 ± 0.039
GGGGGCATCT | 1 ± 0.019
GGGGGCCACG | 0.984 ± 0.022
GGGGGCCCGT | 1.46 ± 0.69
GGGGGCCCTC | 0.985 ± 0.01
GGGGGCCCTG | 0.98993 ± 0.0009
GGGGGCGATT | 0.987 ± 0.017
GGGGGCGGCG | 1 ± 0.051
